Source: patent publication US20160362487A1 (Regeneron, published 2016)
Where a chain is given by its changes, count along the chain named. In names and notes the source's numbering stands.

T1: human IL-33 (R&D Systems, #3625-IL-010/CF) (human, UniProt O95760 112-270)
T1 construct: Commercial recombinant protein; also called hIL-33; interleukin-33
T1 sequence (looked up): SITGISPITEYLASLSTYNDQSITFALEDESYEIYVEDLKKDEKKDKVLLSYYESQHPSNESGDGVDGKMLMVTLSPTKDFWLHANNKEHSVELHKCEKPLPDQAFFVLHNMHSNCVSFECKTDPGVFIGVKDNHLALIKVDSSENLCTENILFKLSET

T2: cynomolgus monkey IL-33 expressed with a C-terminal hexahistidine tag (cynomolgus monkey)
T2 construct: also called MfIL-33-6His; Mf-IL-33-6His
T2 chain: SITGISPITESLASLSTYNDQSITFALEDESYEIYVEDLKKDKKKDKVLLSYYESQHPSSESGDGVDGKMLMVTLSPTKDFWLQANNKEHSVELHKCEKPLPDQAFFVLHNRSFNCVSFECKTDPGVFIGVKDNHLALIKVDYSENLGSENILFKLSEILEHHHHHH

B1: H1M9568N (antibody, mouse IgG1, V domains shown)
VH: QVLLVQSGAEVKKPGATVKVSCKASGSTFTGYYMHWVRQAPGQGLEWMGWINPNNGGTNYAQKFQGRVTMTRDTSISTAYMELSRLRSDDTAVYYCARELRYNWKSWGQGTLVTVSS
VL: EIVLTQSPGTLSLSPGERVTLSCRASQSVGRPYLAWYQQIPGQAPRLLIYGASSRATDIPDRFSGNGSGTDFTLTISRLEPEDFAVYYCQQYDNSPYTFGQGTRLEIK
notes: Human variable domains, mouse IgG1 Fc (H1M)
B2: H4H9640P (antibody, human IgG4, V domains shown)
VH: QVQLQESGPGLVKPSETLSLTCTVSGGSISSYYWSWIRQPPGKGLELIGYIYYSGSTNYNPSLKSRVTISVDTSKNHFSLKLSSVTAADTAVYYCARSQYTSSWYGSFDIWGQGTMVTVSS
VL: DIQMTQSPSSVSASVGDRVTITCRASQGISTWLAWFQQKPGKAPKLLIYAASTLQGGVPSRFSGSGSGPEFTLTISSLQPEDFATYYCQQANSFPWTFGQGTKVEIK
notes: Human IgG4 Fc (H4H)
B3: H1M9566N (antibody, mouse IgG1, V domains shown)
VH: EVQLLESGGDLVQPGGSLRLSCAASGFTFSSYAMSWVRQAPGKGLEWVSVISGSGSSTDYADSVKGRFTISRDNSRDTLHLQMNSLRAEDTAVYYCAKTFYYFYGLDVWGQGTTVTVSS
VL: DIQMTQSPSSLSASLRDRVTITCRASQGISNYLAWYQQKPGKVPKVLIYAASTLQSGVPSRFSGSGSGTVFTLTISSLQTEDVATYYCQKYSSAPFTFGPGTKVDIK
notes: as for B1
B4: H1M9565N (antibody, mouse IgG1, V domains shown)
VH: QVTLKESGPVLVKPTESLTLTCSVSGFSLSNVRMGVSWIRQSPGKALEWLAHIFSNDEKSYTTSLKTRLTISKDTSRSQVVLTMTDMDPGDTATYYCARIRNLAFNYWGQGTLVTVSS
VL: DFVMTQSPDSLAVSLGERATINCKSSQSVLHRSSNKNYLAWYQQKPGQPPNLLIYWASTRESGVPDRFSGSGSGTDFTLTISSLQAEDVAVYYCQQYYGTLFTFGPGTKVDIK
notes: as for B1
B5: H4H9629P (antibody, human IgG4, V domains shown)
VH: EVQLVESGGGLVQPGGSLRLSCAASGFTFRSFAMSWVRQAPGKGLELVSDLRTSGGSTYYADSVKGRLTISRDNSKNTLYLQMNSLRAEDTAVYYCAKSHYSTSWFGGFDYWGQGTLVTVSS
VL: DIQMTQSPSSVSASVGDRVTITCRASQGFSSWLAWYQQKPGKAPKLLIYAASSLQSGVPSRFSGSGSGTDFTLTITNLQPEDFATYYCQQANSFPLTFGGGTKVEIK
notes: Human IgG4 Fc (H4H)
B6: H4H9633P (antibody, human IgG4, V domains shown)
VH: EVQLVESGGGLVQPGGSLRLSCAASGFTFSSYVMSWVRQAPGKGLEWVSSISGNGGSTNYADSVKGRFTISRDNSKNTLFLEMNSLRAEDTAVYYCAKSLGTTTTFLGFDYWGQGTLVTVSS
VL: B5 VL with F29I, D70Y, T76S, N77S
notes: Human IgG4 Fc (H4H)
B7: H4H9659P (antibody, human IgG4, V domains shown)
VH: QVQLVQSGAEVKKPGASVKVSCKASGYTFNSYGISWVRQAPGQGLEWMGWISSHNGNSHYVQKFQGRVSMTTDTSTSTAYMELRSLRSDDTAVYYCARHSYTTSWYGGFDYWGQGTLVTVSS
VL: B5 VL with K45Q, T69S, T76S, N77S
notes: Human IgG4 Fc (H4H)
B8: H4H9660P (antibody, human IgG4, V domains shown)
VH: EVQLVESGGGLVQPGGSLRLSCAASGITLSSYGMSWVRQAPGKGLEWVASIFGSGGGPYYADSVKGRFTMSRDNSKNTLYLQMNSLRAEDTAVYYCAKDRYSGSYYGGFDYWGRGTLVTVSS
VL: B5 VL with F29I, S30T, K45T, S56T, T76S, N77S, D82H, L96P
notes: Human IgG4 Fc (H4H)

Molecular target: T1, human IL-33 (R&D Systems, …)
Assay: BLI; hIL-33 pre-mixed with mAb-2 Isotype control 1
Experimental: Binding competition between a panel of different anti-IL-33 monoclonal antibodies was determined using a real time, label-free bio-layer interferometry assay on an Octet® HTX biosensor (ForteBio, A Division of Pall Life Sciences). The experiment was performed at 25° C. using a buffer of 0.01M HEPES pH7.4, 0.15M NaCl, 0.05% v/v Surfactant Tween-20, and 0.1 mg/ml BSA (HBS-ET kinetics buffer) with the plate shaking at a speed of 1000 rpm. To assess whether two antibodies were able to compete with one another for binding to human IL-33, a pre-mix assay format was used where 100 nM of human IL-33 (R&D Systems; #3625-IL-010/CF) was pre-mixed with 500 nM of different anti-IL-33 monoclonal antibodies (subsequently referred to as mAb-2) for at least 2 hours prior to running the binding competition assay. […] Following the capture step, unoccupied anti-mouse Fc polyclonal antibody and anti-human Fc polyclonal antibody on the Octet biosensors were saturated by submerging them for 4 minutes into wells containing 200 μg/mL of a non-specific monoclonal antibody with a mouse Fc or with a human Fc, respectively. Finally, the Octet biosensors were immersed for 4 minutes into wells containing the pre-mixed samples of 100 nM of human IL-33 and 500 nM of mAb-2. At the end of each cycle, the non-covalently captured anti-IL-33 antibodies along with the bound pre-complex of human IL-33 and mAb-2 were removed from the biosensors using three alternate 20 second immersions into 10 mM HCl followed by submerging into HBS-ET kinetics buffer. The biosensors were washed in HBS-ET kinetics buffer in between every step of the experiment. The real-time binding response was monitored during the binding events, and the binding response (in units of nm) at the end of every step was recorded.

Row | mAb-1 Binding to the Pre-complex of mAb-2 & hIL-33 | Binder
1 | 0.05 nm | B1
2 | 0.18 nm | B2
3 | 0.06 nm | B3
4 | -0.01 nm | B4
5 | 0.22 nm | B5
6 | 0.21 nm | B6
7 | 0.17 nm | B7
8 | 0.21 nm | B8

Molecular target: T2, cynomolgus monkey IL-33 expressed with …
Assay: SPR 37C pH7.4, mAb captured
Experimental: (§1) Equilibrium dissociation constants (KD values) for IL-33 binding to purified anti-IL-33 monoclonal antibodies were determined using a real-time surface plasmon resonance biosensor using a Biacore 4000 instrument. The Biacore sensor surface was first derivatized by amine coupling with either a polyclonal rabbit anti-mouse antibody (GE, # BR-1008-38) or with a monoclonal mouse anti-human Fc antibody (GE, # BR-1008-39) to capture anti-IL-33 monoclonal antibodies expressed with mouse or with human IgG4 constant regions, respectively. All Biacore binding studies were performed in 0.01M ADA pH 7.4, 0.15M NaCl, 3 mM EDTA, and 0.05% v/v Surfactant Tween-20 (ABS-ET running buffer). […] Association of either hIL-33 or MfIL-33-6His to the captured monoclonal antibody was monitored for 4 minutes and their dissociation in ABS-ET running buffer was monitored for 10 minutes. The effect of reduced pH on the binding of each anti-IL-33 antibody to either hIL-33 or MfIL-33-6His was studied using an in-line pH chase assay format in 0.01M ADA pH 6.0, 0.15M NaCl, 3 mM EDTA, and 0.05% v/v Surfactant Tween-20 (ABS-ET pH6 buffer). To achieve this, association of either hIL-33 or MfIL-33-6His to the captured monoclonal antibody was monitored for 4 minutes in ABS-ET running buffer. Following a 30 second dissociation of either hIL-33 or MfIL-33-6His in ABS-ET running buffer, ABS-ET pH6 buffer was injected for 3 minutes, and the analyte dissociation under the low-pH conditions was measured. All the binding kinetic experiments were performed at both 25° C. and 37° C. Kinetic association (kₐ) and dissociation (kd) constants were determined by fitting the real-time sensorgrams to a 1:1 binding model using Scrubber 2.0c curve fitting software. Binding dissociation equilibrium constants (KD) and dissociative half-lives (t½) were calculated from the kinetic rate constants as: […]

Row | Kd | koff | kon | t½ | Binder
9 | 4.46 nM | 0.00173 s⁻¹ | 389000 M⁻¹ s⁻¹ | 7 min | B1
10 | 5.38 nM | 0.00436 s⁻¹ | 810000 M⁻¹ s⁻¹ | 2.6 min | B2
11 | 1 nM | 0.0004 s⁻¹ | 399000 M⁻¹ s⁻¹ | 29 min | B3
12 | 2.59 nM | 0.000202 s⁻¹ | 78200 M⁻¹ s⁻¹ | 57 min | B4
13 | 32.4 nM | 0.0347 s⁻¹ | 1.07e+06 M⁻¹ s⁻¹ | 0.3 min | B5
14 | 48.6 nM | 0.0227 s⁻¹ | 468000 M⁻¹ s⁻¹ | 0.5 min | B6
15 | 3.11 nM | 0.00186 s⁻¹ | 598000 M⁻¹ s⁻¹ | 6 min | B7
16 | 6.53 nM | 0.00444 s⁻¹ | 680000 M⁻¹ s⁻¹ | 2.6 min | B8

Molecular target: T1, human IL-33 (R&D Systems, …)
Assay: SPR 37C pH7.4, mAb captured
Experimental: as §1

Row | Kd | koff | kon | t½ | Binder
17 | 1.43 nM | 0.000961 s⁻¹ | 672000 M⁻¹ s⁻¹ | 12 min | B1
18 | 0.498 nM | 0.000573 s⁻¹ | 1.15e+06 M⁻¹ s⁻¹ | 20 min | B2
19 | 1.7 nM | 0.000283 s⁻¹ | 166000 M⁻¹ s⁻¹ | 41 min | B3
20 | 0.508 nM | 0.000646 s⁻¹ | 1.27e+06 M⁻¹ s⁻¹ | 18 min | B5
21 | 0.931 nM | 0.000689 s⁻¹ | 740000 M⁻¹ s⁻¹ | 17 min | B6
22 | 0.57 nM | 0.000403 s⁻¹ | 707000 M⁻¹ s⁻¹ | 29 min | B7
23 | 0.596 nM | 0.000479 s⁻¹ | 803000 M⁻¹ s⁻¹ | 24 min | B8

Molecular target: T2, cynomolgus monkey IL-33 expressed with …
Assay: SPR 25C pH7.4, mAb captured
Experimental: as §1

Row | Kd | koff | kon | t½ | Binder
24 | 1.07 nM | 0.000261 s⁻¹ | 244000 M⁻¹ s⁻¹ | 44 min | B1
25 | 3.06 nM | 0.00137 s⁻¹ | 450000 M⁻¹ s⁻¹ | 8 min | B2
26 | 0.333 nM | 9.75e-05 s⁻¹ | 293000 M⁻¹ s⁻¹ | 119 min | B3
27 | 1.77 nM | 7.2e-05 s⁻¹ | 40600 M⁻¹ s⁻¹ | 160 min | B4
28 | 23.9 nM | 0.0135 s⁻¹ | 562000 M⁻¹ s⁻¹ | 0.9 min | B5
29 | 38 nM | 0.00997 s⁻¹ | 262000 M⁻¹ s⁻¹ | 1.2 min | B6
30 | 1.5 nM | 0.000486 s⁻¹ | 325000 M⁻¹ s⁻¹ | 24 min | B7
31 | 3.49 nM | 0.00149 s⁻¹ | 426000 M⁻¹ s⁻¹ | 8 min | B8

Molecular target: T1, human IL-33 (R&D Systems, …)
Assay: SPR 25C pH7.4, mAb captured
Experimental: as §1

Row | Kd | koff | kon | t½ | Binder
32 | 0.184 nM | 0.00013 s⁻¹ | 702000 M⁻¹ s⁻¹ | 89 min | B1
33 | 0.26 nM | 0.000237 s⁻¹ | 912000 M⁻¹ s⁻¹ | 49 min | B2
34 | – | – | 127000 M⁻¹ s⁻¹ | – | B3
35 | 0.29 nM | 0.000226 s⁻¹ | 777000 M⁻¹ s⁻¹ | 51 min | B5
36 | 0.432 nM | 0.000283 s⁻¹ | 656000 M⁻¹ s⁻¹ | 41 min | B6
37 | 0.327 nM | 0.000172 s⁻¹ | 526000 M⁻¹ s⁻¹ | 67 min | B7
38 | 0.322 nM | 0.000224 s⁻¹ | 696000 M⁻¹ s⁻¹ | 52 min | B8
